Measurements taken from article PMC5678894 (Biochemistry, 2017).

B1: Full-length R67 dihydrofolate reductase (enzyme)
chain: MIRSSNEVSNPVAGNFVFPSNATFGMGDRVRKKSGAAWQGQIVGWYCTNLTPEGYAVESEAHPGSVQIYPVAALERIN
B2: Chymotrypsin-truncated R67 dihydrofolate reductase (domain or fragment)
chain: VFPSNATFGMGDRVRKKSGAAWQGQIVGWYCTNLTPEGYAVESEAHPGSVQIYPVAALERIN

Target: the molecule itself
Assay: small angle neutron scattering

Row | Protein | binding result
1 | B1 | binds
2 | B2 | binds
